Laboratory results from publication PMC5382021.

Assays:
Test in all cases: purified protein
[1] = test system: Nc1nc2c(ncn2[C@@H]2O[C@@H]3COP(=O)(O)O[C@H]4[C@@H](O)[C@H](n5cnc6c(N)ncnc65)O[C@@H]4COP(=O)(O)O[C@H]3[C@H]2O)c(=O)[nH]1; conditions: 50 mM Tris pH 7.5, 5 mM MnCl2, 37 °C
[2] = test system: Nc1nc2c(ncn2[C@@H]2O[C@@H]3CO[P@](=O)(O)O[C@H]4[C@@H](O)[C@H](n5cnc6c(=O)[nH]c(N)nc65)O[C@@H]4CO[P@](=O)(O)O[C@H]3[C@H]2O)c(=O)[nH]1; conditions: 50 mM Tris pH 7.5, 5 mM MnCl2, 37 °C
[3] = test system: Nc1nc2c(ncn2[C@@H]2O[C@H](CO)[C@H]3OP(=O)(O)O[C@H]32)c(=O)[nH]1; conditions: 2 mM Mn2+, pH 7.5
[4] = test system: O=c1ccn([C@@H]2O[C@H](CO)[C@H]3OP(=O)(O)O[C@H]32)c(=O)[nH]1; conditions: 2 mM Mn2+, pH 7.5
[5] = test system: [H][C@@]1(O)[C@]2([H])OP(=O)(O)OC[C@@]3([H])O[C@@]([H])(n4cnc5c(N)ncnc54)[C@]([H])(O)[C@]3([H])OP(=O)(O)OC[C@@]2([H])O[C@@]1([H])n1cnc2c(N)ncnc21; conditions: 50 mM Tris pH 7.5, 5 mM MnCl2, 37 °C

“rCdnP (CdnP, Gbs1929) (Streptococcus agalactiae 2603V/R)” was tested, and the Km [1] was 4.0 ± 1.6 µM, the kcat [1] was 4.5 s⁻¹ and the kcat/Km [1] was 1.1e+06 M⁻¹ s⁻¹. The Km [2] was 13.2 ± 6 µM, the kcat [2] was 2.6 s⁻¹ and the kcat/Km [2] was 190000 M⁻¹ s⁻¹. For the same substance, the Km [3] was 22 ± 4 µM, the kcat [3] was 9.4 s⁻¹ and the kcat/Km [3] was 420000 M⁻¹ s⁻¹. For the same substance, the Km [4] was 42 ± 10 µM, the kcat [4] was 19.8 s⁻¹ and the kcat/Km [4] was 470000 M⁻¹ s⁻¹. The Km [5] was 14 ± 1 µM, the kcat [5] was 17.4 s⁻¹ and the kcat/Km [5] was 1.2e+06 M⁻¹ s⁻¹.
